125 sequences from the supplement of paper PMC9112550, “Optimization of the antimicrobial peptide Bac7 by deep mutational scanning” (BMC Biology, 2022) can be followed below.

This series deals with Escherichia coli TOP10. In words: shrunken log2 fold change of peptide-encoding DNA abundance (4.5 h post-induction vs induction); higher = less antimicrobial activity (less host growth inhibition). Conditions: time post-induction: 4.5 h; library: site-saturation at positions 5, 18, 19, 20.
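Further: peptides expressed intracellularly from a pBAD plasmid library in pooled LB shake-flask culture, induced with 0.3% L-arabinose, DNA abundance read by NGS, three biological replicates, DESeq2 with apeglm shrinkage.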

For the sequence RRIRIRPPRLPRPRPRPGACPRP, the “shrunken log2 fold change” value was -0.243.

In the case of RRIRKRPPRLPRPRPRPTHVPRP, the “shrunken log2 fold change” value was -0.305. Under RRIRTRPPRLPRPRPRPFGRPRP stands 0.0376. Turning to RRIRGRPPRLPRPRPRPHFPPRP, the “shrunken log2 fold change” value stood at 0.0246.

RRIRPRPPRLPRPRPRPGMCPRP: the “shrunken log2 fold change” value was -0.0873. As for RRIRHRPPRLPRPRPRPYCPPRP, the “shrunken log2 fold change” value is -0.0225.

As to RRIRDRPPRLPRPRPRPYGVPRP, the “shrunken log2 fold change” value was 0.00737. On to RRIRPRPPRLPRPRPRPGCIPRP, for which the “shrunken log2 fold change” value was -0.0111. For RRIRWRPPRLPRPRPRPTILPRP the value was 0.0395; for RRIRHRPPRLPRPRPRPVFTPRP, -0.392; for RRIRYRPPRLPRPRPRPDSDPRP, -0.179. Regarding RRIRWRPPRLPRPRPRPMKQPRP, the “shrunken log2 fold change” value was -0.208. Regarding RRIRWRPPRLPRPRPRPNWIPRP, the “shrunken log2 fold change” value was 0.149. Turning to RRIRMRPPRLPRPRPRPHYSPRP, the “shrunken log2 fold change” value is -0.624.

As to RRIRCRPPRLPRPRPRPKTVPRP, the “shrunken log2 fold change” value is -0.109. For the sequence RRIRRRPPRLPRPRPRPGYMPRP, the “shrunken log2 fold change” value stood at 0.0939. Take RRIRSRPPRLPRPRPRPFYLPRP: the “shrunken log2 fold change” value is -0.818. In the case of RRIRFRPPRLPRPRPRPACIPRP, the “shrunken log2 fold change” value was -0.397. Under RRIRRRPPRLPRPRPRPCAQPRP stands -0.0794; under RRIRVRPPRLPRPRPRPQEGPRP, -0.15; under RRIRQRPPRLPRPRPRPGHVPRP, 0.0119. Turning to RRIRWRPPRLPRPRPRPSGHPRP, the “shrunken log2 fold change” value is -0.195. Under RRIRGRPPRLPRPRPRPCHKPRP stands 0.121; under RRIRHRPPRLPRPRPRPPAKPRP, 0.539; under RRIRNRPPRLPRPRPRPREPPRP, 0.697. For the sequence RRIRTRPPRLPRPRPRPFMVPRP, the “shrunken log2 fold change” value was -0.291. Regarding RRIRYRPPRLPRPRPRPPRTPRP, the “shrunken log2 fold change” value is -0.0112. Turning to RRIRLRPPRLPRPRPRPMPQPRP, the “shrunken log2 fold change” value is 0.164. Turning to RRIRTRPPRLPRPRPRPRRMPRP, the “shrunken log2 fold change” value amounted to 0.15. For RRIRNRPPRLPRPRPRPTNQPRP, the “shrunken log2 fold change” value was -0.281. On to RRIRHRPPRLPRPRPRPNIQPRP, for which the “shrunken log2 fold change” value was -0.141. Turning to RRIRCRPPRLPRPRPRPKPQPRP, the “shrunken log2 fold change” value came to 0.324.

In the case of RRIRRRPPRLPRPRPRPKIWPRP, the “shrunken log2 fold change” value was found to be 0.227.

Take RRIRHRPPRLPRPRPRPMMIPRP: the “shrunken log2 fold change” value amounted to 0.00431. Under RRIRNRPPRLPRPRPRPCRRPRP stands -0.103; under RRIRIRPPRLPRPRPRPNNDPRP, -0.967; under RRIRSRPPRLPRPRPRPEPHPRP, 0.0658. For RRIRVRPPRLPRPRPRPICWPRP, the “shrunken log2 fold change” value was found to be 0.0488.

RRIRTRPPRLPRPRPRPTWWPRP: the “shrunken log2 fold change” value came out at 0.538. Take RRIRIRPPRLPRPRPRPSFLPRP: the “shrunken log2 fold change” value is -1.11. Take RRIRLRPPRLPRPRPRPHRFPRP: the “shrunken log2 fold change” value stood at 0.0608. Turning to RRIRARPPRLPRPRPRPLYNPRP, the “shrunken log2 fold change” value was -0.225. For RRIRKRPPRLPRPRPRPSGYPRP, the “shrunken log2 fold change” value is -0.0136. Turning to RRIRKRPPRLPRPRPRPMFDPRP, the “shrunken log2 fold change” value came to 0.166. On to RRIRFRPPRLPRPRPRPCRKPRP, for which the “shrunken log2 fold change” value stood at 0.0312.

Regarding RRIRARPPRLPRPRPRPGLWPRP, the “shrunken log2 fold change” value is 1.04. Regarding RRIRNRPPRLPRPRPRPAKWPRP, the “shrunken log2 fold change” value was 0.112. For RRIRYRPPRLPRPRPRPHTIPRP, the “shrunken log2 fold change” value was -0.852. On to RRIRCRPPRLPRPRPRPLANPRP, for which the “shrunken log2 fold change” value was determined as 0.452. Under RRIRDRPPRLPRPRPRPCSRPRP stands 0.0202.

On to RRIRARPPRLPRPRPRPWRCPRP, for which the “shrunken log2 fold change” value amounted to 0.0472. For RRIRQRPPRLPRPRPRPNWIPRP the value was -0.0614. As for RRIRNRPPRLPRPRPRPDVPPRP, the “shrunken log2 fold change” value is -0.199. With RRIRWRPPRLPRPRPRPSLIPRP, the “shrunken log2 fold change” value is -0.574. For RRIRKRPPRLPRPRPRPWKTPRP the value was 0.0649; for RRIRERPPRLPRPRPRPMSHPRP, -0.741; for RRIRNRPPRLPRPRPRPIGWPRP, 0.115. On to RRIRSRPPRLPRPRPRPHTYPRP, for which the “shrunken log2 fold change” value is -0.265.

For the sequence RRIRTRPPRLPRPRPRPRVHPRP, the “shrunken log2 fold change” value was determined as 0.0778. On to RRIRCRPPRLPRPRPRPCDVPRP, for which the “shrunken log2 fold change” value is -0.0285. Take RRIRTRPPRLPRPRPRPHGCPRP: the “shrunken log2 fold change” value was found to be 0.14. For RRIRNRPPRLPRPRPRPNCKPRP, the “shrunken log2 fold change” value is -0.424.

In the case of RRIRSRPPRLPRPRPRPSGPPRP, the “shrunken log2 fold change” value came out at 0.0577. Turning to RRIRWRPPRLPRPRPRPERFPRP, the “shrunken log2 fold change” value was -0.0212. RRIRERPPRLPRPRPRPVMKPRP: the “shrunken log2 fold change” value was -0.236. As to RRIRPRPPRLPRPRPRPVMEPRP, the “shrunken log2 fold change” value is -0.101. Under RRIRQRPPRLPRPRPRPKINPRP stands -0.354; under RRIRYRPPRLPRPRPRPYSQPRP, -0.505; under RRIRYRPPRLPRPRPRPGHDPRP, -0.0736.

Take RRIRARPPRLPRPRPRPPQNPRP: the “shrunken log2 fold change” value came to 1.05. On to RRIRERPPRLPRPRPRPISSPRP, for which the “shrunken log2 fold change” value was -0.403. As for RRIRFRPPRLPRPRPRPTAPPRP, the “shrunken log2 fold change” value came out at 0.602. Consider RRIRWRPPRLPRPRPRPSGVPRP, for which the “shrunken log2 fold change” value is -0.158.

As to RRIRVRPPRLPRPRPRPIKVPRP, the “shrunken log2 fold change” value is -0.167.

Consider RRIRSRPPRLPRPRPRPKPNPRP, for which the “shrunken log2 fold change” value was 0.217. For the sequence RRIRMRPPRLPRPRPRPHKTPRP, the “shrunken log2 fold change” value was 0.0147.

As to RRIRGRPPRLPRPRPRPSAAPRP, the “shrunken log2 fold change” value is 2.09. With RRIRIRPPRLPRPRPRPHSAPRP, the “shrunken log2 fold change” value is -0.143. With RRIRYRPPRLPRPRPRPNQSPRP, the “shrunken log2 fold change” value is -0.268. For RRIRPRPPRLPRPRPRPVPRPRP, the “shrunken log2 fold change” value was determined as 0.531. Regarding RRIRMRPPRLPRPRPRPPKVPRP, the “shrunken log2 fold change” value is 0.272.

Regarding RRIRMRPPRLPRPRPRPWHDPRP, the “shrunken log2 fold change” value was determined as 0.162. For RRIRARPPRLPRPRPRPAYPPRP the value was 0.106; for RRIRKRPPRLPRPRPRPVEFPRP, 0.192; for RRIRERPPRLPRPRPRPYCQPRP, -0.0159.

Turning to RRIRFRPPRLPRPRPRPRDDPRP, the “shrunken log2 fold change” value stood at 0.133.

As for RRIRHRPPRLPRPRPRPDESPRP, the “shrunken log2 fold change” value is 0.0491.

RRIRHRPPRLPRPRPRPKAAPRP: the “shrunken log2 fold change” value came to 0.0902. As to RRIRMRPPRLPRPRPRPQIVPRP, the “shrunken log2 fold change” value was -0.163. For the sequence RRIRIRPPRLPRPRPRPMWCPRP, the “shrunken log2 fold change” value is -0.168. For RRIRNRPPRLPRPRPRPIANPRP the value was 0.000407; for RRIRPRPPRLPRPRPRPTVVPRP, 0.0581; for RRIRKRPPRLPRPRPRPHKNPRP, 0.207. On to RRIRNRPPRLPRPRPRPMQPPRP, for which the “shrunken log2 fold change” value was -0.000687.

On to RRIRDRPPRLPRPRPRPCVLPRP, for which the “shrunken log2 fold change” value was determined as 0.0171. RRIRIRPPRLPRPRPRPHAHPRP: the “shrunken log2 fold change” value is -0.554.

As to RRIRRRPPRLPRPRPRPMTTPRP, the “shrunken log2 fold change” value is 0.0808. On to RRIRMRPPRLPRPRPRPCPTPRP, for which the “shrunken log2 fold change” value turned out to be 0.11.

As to RRIRHRPPRLPRPRPRPNWMPRP, the “shrunken log2 fold change” value worked out at 0.00348. With RRIRQRPPRLPRPRPRPARWPRP, the “shrunken log2 fold change” value was determined as 0.781.

Turning to RRIRLRPPRLPRPRPRPHEMPRP, the “shrunken log2 fold change” value was -0.377. On to RRIRLRPPRLPRPRPRPRAAPRP, for which the “shrunken log2 fold change” value amounted to 0.417.

For the sequence RRIRYRPPRLPRPRPRPFNLPRP, the “shrunken log2 fold change” value is -0.271. On to RRIRARPPRLPRPRPRPNKKPRP, for which the “shrunken log2 fold change” value is -0.00857. Under RRIRARPPRLPRPRPRPNTSPRP stands -0.0188; under RRIRWRPPRLPRPRPRPINKPRP, -0.431. For the sequence RRIRFRPPRLPRPRPRPKSMPRP, the “shrunken log2 fold change” value is 0.102. In the case of RRIRLRPPRLPRPRPRPNTNPRP, the “shrunken log2 fold change” value is -0.576.

Consider RRIRWRPPRLPRPRPRPIMIPRP, for which the “shrunken log2 fold change” value was -0.28. With RRIRHRPPRLPRPRPRPILRPRP, the “shrunken log2 fold change” value is -0.178. Turning to RRIRFRPPRLPRPRPRPWHTPRP, the “shrunken log2 fold change” value was -0.0673. Turning to RRIRERPPRLPRPRPRPGHSPRP, the “shrunken log2 fold change” value was -0.134.

Take RRIRQRPPRLPRPRPRPRLKPRP: the “shrunken log2 fold change” value turned out to be 0.161. Take RRIRKRPPRLPRPRPRPYVTPRP: the “shrunken log2 fold change” value was -0.401. RRIRMRPPRLPRPRPRPWNQPRP: the “shrunken log2 fold change” value is -0.0405. Regarding RRIRMRPPRLPRPRPRPCAIPRP, the “shrunken log2 fold change” value is -0.216. For RRIRNRPPRLPRPRPRPVFHPRP, the “shrunken log2 fold change” value is -0.256. Under RRIRSRPPRLPRPRPRPHAVPRP stands 0.0594; under RRIRFRPPRLPRPRPRPWTMPRP, 0.0794; under RRIRMRPPRLPRPRPRPKKSPRP, 1.18.

In the case of RRIRVRPPRLPRPRPRPWTDPRP, the “shrunken log2 fold change” value was -0.0083. With RRIRIRPPRLPRPRPRPDDNPRP, the “shrunken log2 fold change” value was -0.27. On to RRIRRRPPRLPRPRPRPFGIPRP, for which the “shrunken log2 fold change” value worked out at 0.0306. Regarding RRIRERPPRLPRPRPRPFPAPRP, the “shrunken log2 fold change” value is -0.0357. For RRIRYRPPRLPRPRPRPYGFPRP, the “shrunken log2 fold change” value was -0.182.
